In patent US20200385710:

How the values were obtained:
[1] = system: T1, Bxb1 integrase, codon-optimized with bipartite Xenopus NLS (Mycobacteriophage Bxb1?); assay: cell_activity; conditions: 1 mM VPA as printed, 27.6% without VPA
T1 sequence: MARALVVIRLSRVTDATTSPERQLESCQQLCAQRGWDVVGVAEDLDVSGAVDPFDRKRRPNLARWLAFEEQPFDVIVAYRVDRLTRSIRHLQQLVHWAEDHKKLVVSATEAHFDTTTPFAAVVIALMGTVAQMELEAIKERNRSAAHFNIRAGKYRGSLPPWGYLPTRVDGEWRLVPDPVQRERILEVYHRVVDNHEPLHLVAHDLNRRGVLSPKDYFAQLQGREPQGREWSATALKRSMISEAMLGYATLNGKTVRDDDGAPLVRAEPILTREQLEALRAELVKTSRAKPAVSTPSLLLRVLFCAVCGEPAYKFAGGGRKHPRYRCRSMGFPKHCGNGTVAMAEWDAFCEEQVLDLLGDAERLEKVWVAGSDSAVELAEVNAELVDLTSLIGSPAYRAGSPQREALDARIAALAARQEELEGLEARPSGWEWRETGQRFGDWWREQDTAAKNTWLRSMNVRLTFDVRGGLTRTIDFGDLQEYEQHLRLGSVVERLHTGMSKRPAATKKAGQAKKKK

[2] = system: Bxb1 integrase (Mycobacteriophage Bxb1?); assay: cell_activity; conditions: 0.85% without integrase

Substance | activity (% integration) ([1]; HEK293 H11 attP, 43.5% at 700 nM VPA) | activity (% GFP-positive cells) ([2]; attP x attB integration at H11 in HEK293, AAVS1 locus 15.4% (0.74% without)) | activity (% integration) ([1]; attB donor partner, HEK293 H11) | activity (% GFP-positive cells) ([2]; attB donor partner of attP at H11 in HEK293)
Bxb1 attP (landing pad at H11 or AAVS1 locus) | 45.2 | 19.4 |  | 
Bxb1 attB (donor plasmid with GFP) |  |  | 45.2 | 19.4
